Numbering of substitutions follows the chain as printed.
T1: human transglutaminase type 2 (TG2) (human, UniProt P21980 1-687)
T1 sequence: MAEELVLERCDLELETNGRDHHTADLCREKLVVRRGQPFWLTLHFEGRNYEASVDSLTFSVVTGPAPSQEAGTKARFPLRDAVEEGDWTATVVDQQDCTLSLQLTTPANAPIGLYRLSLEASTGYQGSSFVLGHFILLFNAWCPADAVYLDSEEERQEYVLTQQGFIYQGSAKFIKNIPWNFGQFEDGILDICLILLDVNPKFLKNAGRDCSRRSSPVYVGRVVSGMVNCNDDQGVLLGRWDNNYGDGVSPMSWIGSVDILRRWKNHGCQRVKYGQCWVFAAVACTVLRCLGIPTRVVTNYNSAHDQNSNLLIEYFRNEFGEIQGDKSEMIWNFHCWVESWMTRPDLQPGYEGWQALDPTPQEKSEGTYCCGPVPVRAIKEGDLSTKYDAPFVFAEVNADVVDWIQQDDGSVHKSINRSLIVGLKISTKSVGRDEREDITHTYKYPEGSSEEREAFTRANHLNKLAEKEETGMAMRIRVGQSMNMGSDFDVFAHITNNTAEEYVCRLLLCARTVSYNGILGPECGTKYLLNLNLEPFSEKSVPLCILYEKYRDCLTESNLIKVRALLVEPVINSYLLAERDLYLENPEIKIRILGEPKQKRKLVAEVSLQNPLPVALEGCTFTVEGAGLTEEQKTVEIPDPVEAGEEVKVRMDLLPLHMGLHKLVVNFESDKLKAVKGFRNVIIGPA

T2: TG3 (human, UniProt Q08188)
T2 construct: recombinant, Zedira; also called recombinant human TG3; Epidermal Transglutaminase
T2 sequence (enzyme, looked up): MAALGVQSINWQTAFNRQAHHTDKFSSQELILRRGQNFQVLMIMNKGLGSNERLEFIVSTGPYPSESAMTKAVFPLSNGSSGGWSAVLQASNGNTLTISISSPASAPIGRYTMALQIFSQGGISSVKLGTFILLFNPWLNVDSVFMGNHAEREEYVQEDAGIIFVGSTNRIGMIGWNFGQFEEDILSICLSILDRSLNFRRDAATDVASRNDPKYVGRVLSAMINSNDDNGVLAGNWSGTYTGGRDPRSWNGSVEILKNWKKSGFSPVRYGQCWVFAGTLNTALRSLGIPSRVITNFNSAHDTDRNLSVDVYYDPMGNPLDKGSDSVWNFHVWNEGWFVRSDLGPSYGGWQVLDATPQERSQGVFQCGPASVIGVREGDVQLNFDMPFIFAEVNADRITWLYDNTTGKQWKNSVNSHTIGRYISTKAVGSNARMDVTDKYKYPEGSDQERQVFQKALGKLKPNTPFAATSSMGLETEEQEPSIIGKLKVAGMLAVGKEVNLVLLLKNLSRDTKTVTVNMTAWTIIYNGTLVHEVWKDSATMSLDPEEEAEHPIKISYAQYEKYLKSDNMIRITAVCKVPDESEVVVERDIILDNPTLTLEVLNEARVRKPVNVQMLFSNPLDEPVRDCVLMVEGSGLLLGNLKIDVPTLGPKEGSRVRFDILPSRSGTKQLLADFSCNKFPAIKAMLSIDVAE

T3: TG1 (human, UniProt P22735)
T3 construct: recombinant, Zedira; also called recombinant human TG1; Keratinocyte Transglutaminase
T3 sequence (enzyme, looked up): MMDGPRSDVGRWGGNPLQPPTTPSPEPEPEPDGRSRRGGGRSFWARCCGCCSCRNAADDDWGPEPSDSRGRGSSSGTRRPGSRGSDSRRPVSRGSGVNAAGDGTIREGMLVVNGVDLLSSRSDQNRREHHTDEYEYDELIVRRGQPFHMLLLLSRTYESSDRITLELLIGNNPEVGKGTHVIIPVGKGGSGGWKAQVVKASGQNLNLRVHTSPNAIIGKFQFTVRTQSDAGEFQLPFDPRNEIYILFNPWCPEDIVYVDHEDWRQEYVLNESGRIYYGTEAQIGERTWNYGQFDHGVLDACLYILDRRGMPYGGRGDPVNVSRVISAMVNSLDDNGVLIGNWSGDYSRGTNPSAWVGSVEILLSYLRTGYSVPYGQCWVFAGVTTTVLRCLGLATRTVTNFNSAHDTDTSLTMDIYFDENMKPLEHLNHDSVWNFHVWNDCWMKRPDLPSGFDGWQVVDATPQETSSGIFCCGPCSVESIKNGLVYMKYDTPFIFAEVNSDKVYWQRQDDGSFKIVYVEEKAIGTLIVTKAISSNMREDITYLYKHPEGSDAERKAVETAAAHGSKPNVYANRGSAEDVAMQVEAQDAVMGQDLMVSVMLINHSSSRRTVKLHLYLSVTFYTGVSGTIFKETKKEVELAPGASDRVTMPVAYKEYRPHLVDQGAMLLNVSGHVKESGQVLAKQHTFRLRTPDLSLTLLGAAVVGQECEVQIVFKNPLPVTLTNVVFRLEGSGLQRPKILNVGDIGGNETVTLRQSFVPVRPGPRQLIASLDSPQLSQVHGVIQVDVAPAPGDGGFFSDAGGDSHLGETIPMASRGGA

B1: DH2 murine monoclonal antibody (antibody, V domains shown)
VH: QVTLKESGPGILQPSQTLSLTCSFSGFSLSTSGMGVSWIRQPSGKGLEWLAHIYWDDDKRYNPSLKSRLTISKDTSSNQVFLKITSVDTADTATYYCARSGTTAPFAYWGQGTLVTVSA
VL: QIVLTQSPAIMSASPGEKVTMTCSASSSVSYMYWYQQKPGSSPRLLIYDTSNLASGVPVRFSGSGSGTSYSLTISRMEAEDAATFYCQQWSSSPLTFGAGTKLELK
notes: Mouse hybridoma IgG; heavy chain amplified with primer MHCG2B, kappa light chain; also called mDH001
B2: DD9 murine monoclonal antibody (antibody, V domains shown)
VH: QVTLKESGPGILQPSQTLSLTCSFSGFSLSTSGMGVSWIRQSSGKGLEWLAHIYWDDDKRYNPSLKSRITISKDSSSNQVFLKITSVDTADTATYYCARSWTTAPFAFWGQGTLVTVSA
VL: B1 VL with S30D, E78G, F85Y, S91N
notes: Mouse hybridoma IgG; heavy chain amplified with primer MHCG2A, kappa light chain; also called mDD9001
B3: AG9 murine monoclonal antibody (antibody, V domains shown)
VH: EVQLQQSGPELVKPGASVKMSCRASGYTFTTYVIHWVKQKPGQGLEWIGYINPYNDGARYNEKFKGKATLTSDKSSTTAYMELSSLTSEDSAVYYCARLSSDYWGQGTTLTVSS
VL: DVLMTQNPLSLPVSLGDQASISCRSSRSIEHSNGNTYLEWYLQKPGQSPKFLIYKVSNRFSGVPDRFSGSGSGTDFTLRISSVEAEDLGVYYCFQGSHVPFTFGGGTKLEIK
notes: Mouse hybridoma IgG; heavy chain amplified with primer MHCG1, kappa light chain
B4: EH6 murine monoclonal antibody (antibody, V domains shown)
VH: B3 VH with R23K, T31S, I34M, Y50F, A58T, R59K, S75A, L99F, D102G
VL: B3 VL with N7T, R27Q, E30V, F51L, R79K, S82R, E84G, F94L, G96V, G105S
notes: Mouse hybridoma IgG; heavy chain amplified with primer MHCG2B, kappa light chain
B5: AH3 murine monoclonal antibody (antibody, V domains shown)
VH: B3 VH
VL: B3 VL
notes: as for B4
B6: AB1 murine monoclonal antibody (antibody, V domains shown)
VH: EVQLVESGGGLVKPGGSLKLSCAASGFTLSSSAMSWVRQTPDRRLEWVATISVGGGKTYYPDSVKGRFTISRDNAKNTLYLQMNSLRSEDTAMYYCAKLISLYWGQGTTLTVSS
VL: DIKMTQSPSSMYASLGERVTITCKASQDINSYLTWFQQKPGKSPKTLIYRTNRLFDGVPSRFSGSGSGQDFFLTISSLEYEDMGIYYCLQYDDFPYTFGGGTKLEIK
notes: Mouse hybridoma IgG; heavy chain amplified with constant region primer MHCG1, kappa light chain; also called mAB003
B7: DC1 murine monoclonal antibody (antibody, V domains shown)
VH: EVQLVESGGGLVKPGGSLKLSCAASGFTLSTHAMSWVRQTPEKRLEWVATISSGGRSTYYPDSVKGRFTISRDNVKNTLYLQLSSLRSEDTAVYFCARLISTYWGQGTTLTVSS
VL: B6 VL with K3T, M11I, T46I, R50L, T51V, F55V, F71Y, F72A
notes: Mouse hybridoma IgG; heavy chain amplified with primer MHCG1, kappa light chain; also called mDC001
B8: BB7 murine monoclonal antibody (antibody, V domains shown)
VH: AVQLVESGGGLVKPGGSLKLSCAASGIIFSSSAMSWVRQTPEKRLEWVATISSGGRSTYYPDSVKGRFTVSRDSAKNTLYLQMDSLRSEDTAIYYCAKLISPYWGQGTTLTVSS
VL: B6 VL with D1A, T20I, R50L, F55M, D70E, F72L, S77G, Y80H, D92V
notes: Mouse hybridoma IgG; heavy chain amplified with primer MHCG1, kappa light chain; also called mBB001
B9: JE12 murine monoclonal antibody (antibody, V domains shown)
VH: B3 VH with R23K, T28R, T31S, I34M, P41S, R59K, T77S
VL: B3 VL with R27Q, S32I, S82R, V90I
notes: as for B3

What follows are binders tested against T1, human transglutaminase type 2 (TG2) (assay: cell-based or functional assay).

Q: With B1 as the binder, how does the “IC50 of TG2 activity, 3H putrescine incorporation” value (from here on “IC50 of TG2 activity”) read?
A: The value was 6.7e-05 mg/ml IgG per ng TG2.

Q: For B2, which “IC50 of TG2 activity” value is on record?
A: The value was 5.24e-05 mg/ml IgG per ng TG2.

Q: Which “IC50 of TG2 activity” value does the source give for B3 here?
A: The value was 4.87e-05 mg/ml IgG per ng TG2.

Q: B4 was tested. Which “IC50 of TG2 activity” value did it give?
A: Its value is 6.9e-05 mg/ml IgG per ng TG2.

Q: With B5 as the binder, how does the “IC50 of TG2 activity” value read?
A: Its value is 7.8e-05 mg/ml IgG per ng TG2.

Q: B6 was tested. Which “IC50 of TG2 activity” value did it give?
A: The value was 1.09e-05 mg/ml IgG per ng TG2.

Q: Which “IC50 of TG2 activity” value does the source give for B7 here?
A: The value was 1.23e-05 mg/ml IgG per ng TG2.

Q: How did the “IC50 of TG2 activity” value turn out when B8 was run?
A: The value was 1.59e-05 mg/ml IgG per ng TG2.

These binders were tested against T2, TG3 (assay: ELISA, hybridoma conditioned medium, plates coated with recombinant TG (100 ng/well) [panel A]).
Description: (§1) Conditioned medium or purified IgG were tested for reactivity to transglutaminase family members. The ability of each to bind to each transglutaminase (TG1, TG2, TG3, TG5, TG7 and Factor XIIIa; all Zedira) was determined using a plate binding assay. Microtiter plates (Costar, Cambridge, UK) were coated with recombinant TG (Zedira, Darmstadt, Germany) in 50 μl of 0.1 M bicarbonate/carbonate buffer (pH 9.6) overnight at 4° C. Plates were blocked for 2 h at 37° C. with 200 μl PBS containing 3% w/v BSA. Plates were washed three times with PBS containing 0.05% Tween 20 (washing buffer) and 100 μl of diluted conditioned medium (dilution 1:5 to 1:20) or purified anti-TG2 catalytic core mAbs was added. Plates were incubated for a further 1 h at room temperature. The washing step was repeated and anti-mouse gamma chain-horseradish peroxidase (1:5000) in PBS containing 0.05% Tween 20 (v:v) and 1% BSA (w:v) (Sigma, Poole UK) was added for 1 h. […] The reaction was stopped by adding 25 μl of 0.1 M H_2SO_4 and the absorbance at 450 nm was determined.

Q: Does B1 bind?
A: Result: no binding

Q: Does B2 bind?
A: Result: no binding

Q: Does B3 bind?
A: Result: no binding

Q: Does B4 bind?
A: Result: no binding

Q: Does B5 bind?
A: Result: no binding

Q: Does B9 bind?
A: Result: no binding

Q: Does B6 bind?
A: Result: no binding

Q: Does B8 bind?
A: Result: no binding

These binders were tested against T3, TG1 in the same assay as above.
Description: as §1

Q: Does B1 bind?
A: Result: no binding

Q: Does B2 bind?
A: Result: no binding

Q: Does B3 bind?
A: Result: no binding

Q: Does B4 bind?
A: Result: no binding

Q: Does B5 bind?
A: Result: no binding

Q: Does B9 bind?
A: Result: no binding

Q: Does B6 bind?
A: Result: no binding

Q: Does B7 bind?
A: Result: no binding

Q: Does B8 bind?
A: Result: no binding
